# According to paper PMC9663503, “Independently evolved viral effectors convergently suppress DELLA protein SLR1-mediated broad-spectrum antiviral immunity in rice” (Nature Communications, 2022):
# T1: GST-SLR1 (rice (Oryza sativa), UniProt Q7G7J6 1-625)
# T1 construct: SLENDER RICE 1 (SLR1), the rice DELLA protein; 'the cDNAs encoding SLR1'; source: E. coli Rosetta (DE3), purified (GSTrap FF column)
# T1 sequence: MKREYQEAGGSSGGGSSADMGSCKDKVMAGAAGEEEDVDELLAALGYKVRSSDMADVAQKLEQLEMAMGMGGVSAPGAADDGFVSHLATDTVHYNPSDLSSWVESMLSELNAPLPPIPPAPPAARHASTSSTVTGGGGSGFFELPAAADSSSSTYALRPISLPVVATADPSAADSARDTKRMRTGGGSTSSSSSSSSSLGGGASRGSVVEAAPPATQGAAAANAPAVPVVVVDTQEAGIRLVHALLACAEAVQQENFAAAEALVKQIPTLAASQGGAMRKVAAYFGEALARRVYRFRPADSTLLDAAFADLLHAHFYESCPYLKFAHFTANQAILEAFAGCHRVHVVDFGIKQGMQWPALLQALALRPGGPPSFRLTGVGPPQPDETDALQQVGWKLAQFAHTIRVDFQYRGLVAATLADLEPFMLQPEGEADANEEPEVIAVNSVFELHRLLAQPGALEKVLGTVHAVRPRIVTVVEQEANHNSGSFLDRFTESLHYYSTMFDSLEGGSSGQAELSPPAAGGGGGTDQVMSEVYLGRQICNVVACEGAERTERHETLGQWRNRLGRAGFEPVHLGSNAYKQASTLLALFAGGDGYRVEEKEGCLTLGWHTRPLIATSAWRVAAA
# Target: T1, GST-SLR1
# Test: pull-down; competitive pull-down: GST-SLR1 and MBP-His-OsGID1 with 100 µM GA3, then 10 or 50 µg TF-His-SP8 (or MBP-His-P2), 4 °C about 2 h; GST beads; anti-GST and anti-His blots
# Conditions: both partners purified
binder,measurement,value
"MBP-His-OsGID1 (receptor, OsGID1, the rice gibberellin receptor GIBBERELLIN … DWARF1; also called PET32a-MBP-His-OsGID1; source: E. coli Rosetta (DE3), purified (Ni-NTA His-trap column)) MAGSDEVNRNECKTVVPLHTWVLISNFKLSYNILRRADGTFERDLGEYLDRRVPANARPLEGVSSFDHIIDQSVGLEVRIYRAAAEGDAEEGAAAVTRPILEFLTDAPAAEPFPVIIFFHGGSFVHSSASSTIYDSLCRRFVKLSKGVVVSVNYRRAPEHRYPCAYDDGWTALKWVMSQPFMRSGGDAQARVFLSGDSSGGNIAHHVAVRAADEGVKVCGNILLNAMFGGTERTESERRLDGKYFVTLQDRDWYWKAYLPEDADRDHPACNPFGPNGRRLGGLPFAKSLIIVSGLDLTCDRQLAYADALREDGHHVKVVQCENATVGFYLLPNTVHYHEVMEEISDFLNANLYY",binding result,binds
